{
  "source": "IntAct's records for PubMed 9468139",
  "parents": {"B1": {"name": "Retinoblastoma-associated protein (Homo sapiens), P06400 (parent)", "chain": "MPPKTPRKTAATAAAAAAEPPAPPPPPPPEEDPEQDSGPEDLPLVRLEFEETEEPDFTALCQKLKIPDHVRERAWLTWEKVSSVDGVLGGYIQKKKELWGICIFIAAVDLDEMSFTFTELQKNIEISVHKFFNLLKEIDTSTKVDNAMSRLLKKYDVLFALFSKLERTCELIYLTQPSSSISTEINSALVLKVSWITFLLAKGEVLQMEDDLVISFQLMLCVLDYFIKLSPPMLLKEPYKTAVIPINGSPRTPRRGQNRSARIAKQLENDTRIIEVLCKEHECNIDEVKNVYFKNFIPFMNSLGLVTSNGLPEVENLSKRYEEIYLKNKDLDARLFLDHDKTLQTDSIDSFETQRTPRKSNLDEEVNVIPPHTPVRTVMNTIQQLMMILNSASDQPSENLISYFNNCTVNPKESILKRVKDIGYIFKEKFAKAVGQGCVEIGSQRYKLGVRLYYRVMESMLKSEEERLSIQNFSKLLNDNIFHMSLLACALEVVMATYSRSTSQNLDSGTDLSFPWILNVLNLKAFDFYKVIESFIKAEGNLTREMIKHLERCEHRIMESLAWLSDSPLFDLIKQSKDREGPTDHLESACPLNLPLQNNHTAADMYLSPVRSPKKKGSTTRVNSTANAETQATSAFQTQKPLKSTSLSLFYKKVYRLAYLRLNTLCERLLSEHPELEHIIWTLFQHTLQNEYELMRDRHLDQIMMCSMYGICKVKNIDLKFKIIVTAYKDLPHAVQETFKRVLIKEEEYDSIIVFYNSVFMQRLKTNILQYASTRPPTLSPIPHIPRSPYKFPSSPLRIPGGNIYISPLKSPYKISEGLPTPTKMTPRSRILVSIGESFGTSEKFQKINQMVCNSDRVLKRSAEGSNPPKPLKKLRFDIEGSDEADGSKHLPGESKFQQKLAEMTSTRTRMQKQKMNDSMDTSNKEEK"}},
  "data": [
    {"variants_of": "B1", "conditions": "with hdac1_human HDAC1, Q13547", "values": [
      {"variant": "C706F", "effect of a mutation on the interaction": "decreasing interaction"}
    ]}
  ]
}
